From patent publication US9249224B2 (RINAT NEUROSCIENCE CORP., priority 2011, dated 2016)

Tested on: IGF-1
Assay: Serum IGF-1 levels in cynomolgus monkeys after a single antibody dose
Assay type: in vivo, cynomolgus monkey
Protocol: Serum samples were analyzed for changes in IGF-1 levels compared to baseline using an R&D Systems™ Quantikine™ human IGF-1 immunoassay kit (cat. #DG100).
To determine if GHR antagonist monoclonal antibodies can affect IGF-1, IGFBP-3, and ALS levels in vivo by inhibiting the function of GHR, the effect of humanized anti-human GHR antibody SS1 was tested in cynomolgus monkeys. A dose-response study was conducted to test for changes in IGF-1, IGFBP-3, and ALS levels following a single dose of SS1. Eight naïve female cynomolgus monkeys were injected intravenously with a single dose of SS1 or negative control human IgG2, in 1×PBS 0.01% Tween™ 20. Two monkeys were dosed with 30 mg/kg SS1, two were dosed with 10 mg/kg SS1, two were dosed with 3 mg/kg SS1, and two were dosed with 30 mg/kg negative control human IgG2Δa on Day 1. Serum samples were taken from all animals at the following timepoints: pre-dose, 24 h, 48 h, 72 h, 120 h, 144 h, 192 h, 240 h, 336 h, 528 h, 696 h. Serum was also taken from the 30 mg/kg SS1 and negative control treated animals at 864 h post-dose.
Six naïve female cynomolgus monkeys were injected either intravenously or subcutaneously with a single dose of […] or negative control human IgG2Δa in 1×PBS 0.01% Tween™ 20. Two monkeys were dosed with 3 mg/kg SS1 intravenously, two were dosed with 3 mg/kg SS1 subcutaneously, and two were dosed with 3 mg/kg negative control human IgG2Δa subcutaneously on Day 1. Serum samples were taken from all animals at the following timepoints: pre-dose, 24 h, 72 h, 120 h, 168 h, 216 h, 264 h, 312 h, 360 h, 408 h, 456 h and 504 h.

B1: SS1: humanized GHR antagonist antibody; VL SEQ ID NO: 7, VH SEQ ID NO: 8; hIgG2Δa heavy chain SEQ ID NO: 134, light chain SEQ ID NO: 135 (antibody)
heavy: EVQLVESGGGLVKPGGSLRLSCAASGFTFSDAWMDWVRQAPGKGLEWVAEIRSKANYHATYYAESVKGRFTISRDDSKNTLYLQMNSLKTEDTAVYYCTLIRDYWGQGTLVTVSSASTKGPSVFPLAPCSRSTSESTAALGCLVKDYFPEPVTVSWNSGALTSGVHTFPAVLQSSGLYSLSSVVTVPSSNFGTQTYTCNVDHKPSNTKVDKTVERKCCVECPPCPAPPVAGPSVFLFPPKPKDTLMISRTPEVTCVVVDVSHEDPEVQFNWYVDGVEVHNAKTKPREEQFNSTFRVVSVLTVVHQDWLNGKEYKCKVSNKGLPSSIEKTISKTKGQPREPQVYTLPPSREEMTKNQVSLTCLVKGFYPSDIAVEWESNGQPENNYKTTPPMLDSDGSFFLYSKLTVDKSRWQQGNVFSCSVMHEALHNHYTQKSLSLSPGK
light: EIVLTQSPGTLSLSPGERATLSCTATSSVSSSYLNWYQQKPGQAPRLLIYSTSNLASGIPDRFSGSGSGTDFTLTISRLEPEDFAVYYCHQYHRSTPTFGGGTKVEIKRTVAAPSVFIFPPSDEQLKSGTASVVCLLNNFYPREAKVQWKVDNALQSGNSQESVTEQDSKDSTYSLSSTLTLSKADYEKHKVYACEVTHQGLSSPVTKSFNRGEC
modifications: Humanized and/or affinity matured antibody sequence
- serum IGF-1 levels (% change from baseline) (Table 10, cynomolgus monkeys, SS1 3 mg/kg IV single dose, 24 h post-injection): −43.6 +/− 0.5%
- serum IGF-1 levels (% change from baseline) (Table 10, cynomolgus monkeys, SS1 3 mg/kg IV single dose, 48 h post-injection): −66.6 +/− 1.1%
- serum IGF-1 levels (% change from baseline) (Table 10, cynomolgus monkeys, SS1 3 mg/kg IV single dose, 72 h post-injection): −67.1 +/− 1.6%
- serum IGF-1 levels (% change from baseline) (Table 10, cynomolgus monkeys, SS1 3 mg/kg IV single dose, 120 h post-injection): −76.2 +/− 7.9%
- serum IGF-1 levels (% change from baseline) (Table 10, cynomolgus monkeys, SS1 3 mg/kg IV single dose, 144 h post-injection): −68.4 +/− 1.1%
- serum IGF-1 levels (% change from baseline) (Table 10, cynomolgus monkeys, SS1 3 mg/kg IV single dose, 192 h post-injection): −65.2 +/− 3.0%
- serum IGF-1 levels (% change from baseline) (Table 10, cynomolgus monkeys, SS1 3 mg/kg IV single dose, 240 h post-injection): −34.5 +/− 17.8%
- serum IGF-1 levels (% change from baseline) (Table 10, cynomolgus monkeys, SS1 3 mg/kg IV single dose, 336 h post-injection): 64.2 +/− 0.6%
- serum IGF-1 levels (% change from baseline) (Table 10, cynomolgus monkeys, SS1 3 mg/kg IV single dose, 528 h post-injection): 85.1 +/− 46.0%
- serum IGF-1 levels (% change from baseline) (Table 10, cynomolgus monkeys, SS1 3 mg/kg IV single dose, 696 h post-injection): 49.2 +/− 11.3%
- serum IGF-1 levels (% change from baseline) (Table 10, cynomolgus monkeys, SS1 10 mg/kg IV single dose, 24 h post-injection): −43.4 +/− 2.2%
- serum IGF-1 levels (% change from baseline) (Table 10, cynomolgus monkeys, SS1 10 mg/kg IV single dose, 48 h post-injection): −62.6 +/− 5.5%
- serum IGF-1 levels (% change from baseline) (Table 10, cynomolgus monkeys, SS1 10 mg/kg IV single dose, 72 h post-injection): −67.1 +/− 4.7%
- serum IGF-1 levels (% change from baseline) (Table 10, cynomolgus monkeys, SS1 10 mg/kg IV single dose, 120 h post-injection): −73.5 +/− 2.1%
- serum IGF-1 levels (% change from baseline) (Table 10, cynomolgus monkeys, SS1 10 mg/kg IV single dose, 144 h post-injection): −76.0 +/− 0.1%
- serum IGF-1 levels (% change from baseline) (Table 10, cynomolgus monkeys, SS1 10 mg/kg IV single dose, 192 h post-injection): −74.0 +/− 0.2%
- serum IGF-1 levels (% change from baseline) (Table 10, cynomolgus monkeys, SS1 10 mg/kg IV single dose, 240 h post-injection): −70.9 +/− 1.9%
- serum IGF-1 levels (% change from baseline) (Table 10, cynomolgus monkeys, SS1 10 mg/kg IV single dose, 336 h post-injection): −61.4 +/− 0.6%
- serum IGF-1 levels (% change from baseline) (Table 10, cynomolgus monkeys, SS1 10 mg/kg IV single dose, 528 h post-injection): 25.7 +/− 11.8%
- serum IGF-1 levels (% change from baseline) (Table 10, cynomolgus monkeys, SS1 10 mg/kg IV single dose, 696 h post-injection): 31.7 +/− 15.2%
- serum IGF-1 levels (% change from baseline) (Table 10, cynomolgus monkeys, SS1 30 mg/kg IV single dose, 24 h post-injection): −43.2 +/− 3.0%
- serum IGF-1 levels (% change from baseline) (Table 10, cynomolgus monkeys, SS1 30 mg/kg IV single dose, 48 h post-injection): −63.2 +/− 5.0%
- serum IGF-1 levels (% change from baseline) (Table 10, cynomolgus monkeys, SS1 30 mg/kg IV single dose, 72 h post-injection): −68.5 +/− 5.8%
- serum IGF-1 levels (% change from baseline) (Table 10, cynomolgus monkeys, SS1 30 mg/kg IV single dose, 120 h post-injection): −75.2 +/− 5.2%
- serum IGF-1 levels (% change from baseline) (Table 10, cynomolgus monkeys, SS1 30 mg/kg IV single dose, 144 h post-injection): −77.5 +/− 5.6%
- serum IGF-1 levels (% change from baseline) (Table 10, cynomolgus monkeys, SS1 30 mg/kg IV single dose, 192 h post-injection): −77.2 +/− 3.3%
- serum IGF-1 levels (% change from baseline) (Table 10, cynomolgus monkeys, SS1 30 mg/kg IV single dose, 240 h post-injection): −74.8 +/− 3.4%
- serum IGF-1 levels (% change from baseline) (Table 10, cynomolgus monkeys, SS1 30 mg/kg IV single dose, 336 h post-injection): −73.3 +/− 0.7%
- serum IGF-1 levels (% change from baseline) (Table 10, cynomolgus monkeys, SS1 30 mg/kg IV single dose, 528 h post-injection): −73.0 +/− 0.9%
- serum IGF-1 levels (% change from baseline) (Table 10, cynomolgus monkeys, SS1 30 mg/kg IV single dose, 696 h post-injection): −70.4 +/− 1.1%
- serum IGF-1 levels (% change from baseline) (Table 10, cynomolgus monkeys, SS1 30 mg/kg IV single dose, 864 h post-injection): −8.8 +/− 2.9%
- serum IGF-1 levels (% change from baseline) (Table 13, cynomolgus monkeys, SS1 3 mg/kg IV single dose, 24 hour post-injection): −35 +/− 4.4%
- serum IGF-1 levels (% change from baseline) (Table 13, cynomolgus monkeys, SS1 3 mg/kg IV single dose, 72 hour post-injection): −64.8 +/− 2.7%
- serum IGF-1 levels (% change from baseline) (Table 13, cynomolgus monkeys, SS1 3 mg/kg IV single dose, 120 hour post-injection): −71.6 +/− 1.8%
- serum IGF-1 levels (% change from baseline) (Table 13, cynomolgus monkeys, SS1 3 mg/kg IV single dose, 168 hour post-injection): −70.2 +/− 2.7%
- serum IGF-1 levels (% change from baseline) (Table 13, cynomolgus monkeys, SS1 3 mg/kg IV single dose, 216 hour post-injection): −64.5%
- serum IGF-1 levels (% change from baseline) (Table 13, cynomolgus monkeys, SS1 3 mg/kg IV single dose, 264 hour post-injection): −36.0%
- serum IGF-1 levels (% change from baseline) (Table 13, cynomolgus monkeys, SS1 3 mg/kg IV single dose, 312 hour post-injection): −30.3%
- serum IGF-1 levels (% change from baseline) (Table 13, cynomolgus monkeys, SS1 3 mg/kg IV single dose, 360 hour post-injection): −27.8%
- serum IGF-1 levels (% change from baseline) (Table 13, cynomolgus monkeys, SS1 3 mg/kg SQ single dose, 24 hour post-injection): −46.7 +/− 9.9%
- serum IGF-1 levels (% change from baseline) (Table 13, cynomolgus monkeys, SS1 3 mg/kg SQ single dose, 72 hour post-injection): −62.5 +/− 2.5%
- serum IGF-1 levels (% change from baseline) (Table 13, cynomolgus monkeys, SS1 3 mg/kg SQ single dose, 120 hour post-injection): −68.7 +/− 2.8%
- serum IGF-1 levels (% change from baseline) (Table 13, cynomolgus monkeys, SS1 3 mg/kg SQ single dose, 168 hour post-injection): −65.6 +/− 4.1%
- serum IGF-1 levels (% change from baseline) (Table 13, cynomolgus monkeys, SS1 3 mg/kg SQ single dose, 216 hour post-injection): −60.7%
- serum IGF-1 levels (% change from baseline) (Table 13, cynomolgus monkeys, SS1 3 mg/kg SQ single dose, 264 hour post-injection): −40.9%
- serum IGF-1 levels (% change from baseline) (Table 13, cynomolgus monkeys, SS1 3 mg/kg SQ single dose, 312 hour post-injection): −15.3%
- serum IGF-1 levels (% change from baseline) (Table 13, cynomolgus monkeys, SS1 3 mg/kg SQ single dose, 360 hour post-injection): −4.2%
- time until which serum IGF-1 remained below 60% baseline levels (cynomolgus monkeys, 3 mg/kg SS1 either SQ or IV): about 216 hour
- time until which serum IGF-1 remained substantially lower than baseline (cynomolgus monkeys, SS1 3 mg/kg IV single dose): 240 h
- time until which serum IGF-1 remained substantially lower than baseline (cynomolgus monkeys, SS1 10 mg/kg IV single dose): 336 h
- time until which serum IGF-1 remained substantially lower than baseline (cynomolgus monkeys, SS1 30 mg/kg IV single dose): 696 h
- serum IGF-1 decrease below baseline levels (cynomolgus monkeys, single IV dose of 3, 10 or 30 mg/kg SS1, by 120 hours): about 75%
- serum IGF-1 decrease below control (cynomolgus monkeys, single dose 3 mg/kg SS1 subcutaneous (SC) or intravenous (IV), by 72 hours): about 63%
- effect on serum IGF-1 levels in cynomolgus monkeys (single IV dose, dose-response): dose dependently reduces serum IGF-1 levels
